Assay results: publication PMC6979384, “Characterization of the plant homeodomain (PHD) reader family for their histone tail interactions” (Epigenetics & Chromatin, 2020)

B1: PHRF1 (RP): GST-tagged RING + PHD, 90-250 (protein)
chain: QGKLEAAGSFNSDDDAESCPICLNAFRDQAVGTPENCAHYFCLDCIVEWSKNANSCPVDRTLFKCICIRAQFGGKILRKIPVENTKASEEEEDPTFCEVCGRSDREDRLLLCDGCDAGYHMECLDPPLQEVPVDEWFCPECAAPGVVLAADAGPVSEEEVS
modifications: GST tag
B2: CHD5 (PPCC): GST-tagged Dual PHD + Dual Chromo, 330-670 (protein)
chain: KRIDDGDGYETDHQDYCEVCQQGGEIILCDTCPRAYHLVCLDPELEKAPEGKWSCPHCEKEGIQWEPKDDDDEEEEGGCEEEEDDHMEFCRVCKDGGELLCCDACPSSYHLHCLNPPLPEIPNGEWLCPRCTCPPLKGKVQRILHWRWTEPPAPFMVGLPGPDVEPSLPPPKPLEGIPEREFFVKWAGLSYWHCSWVKELQLELYHTVMYRNYQRKNDMDEPPPFDYGSGDEDGKSEKRKNKDPLYAKMEERFYRYGIKPEWMMIHRILNHSFDKKGDVHYLIKWKDLPYDQCTWEIDDIDIPYYDNLKQAYWGHRELMLGEDTRLPKRLLKKGKKLRDDK
modifications: GST tag
B3: CHD4 (PPCC): GST-tagged Dual PHD + Dual Chromo, 350-710 (protein)
chain: KKKKKGEEEVTAVDGYETDHQDYCEVCQQGGEIILCDTCPRAYHMVCLDPDMEKAPEGKWSCPHCEKEGIQWEAKEDNSEGEEILEEVGGDLEEEDDHHMEFCRVCKDGGELLCCDTCPSSYHIHCLNPPLPEIPNGEWLCPRCTCPALKGKVQKILIWKWGQPPSPTPVPRPPDADPNTPSPKPLEGRPERQFFVKWQGMSYWHCSWVSELQLELHCQVMFRNYQRKNDMDEPPSGDFGGDEEKSRKRKNKDPKFAEMEERFYRYGIKPEWMMIHRILNHSVDKKGHVHYLIKWRDLPYDQASWESEDVEIQDYDLFKQSYWNHRELMRGEEGRPGKKLKKVKLRKLERPPETPTVDPTV
modifications: GST tag
B4: TRIM66 (PB): GST-tagged PHD + Bromo, 966-1216 (protein)
chain: APIENEDFCAVCLNGGELLCCDRCPKVFHLSCHVPALLSFPGGEWVCTLCRSLTQPEMEYDCENACYNQPGMRASPGLSMYDQKKCEKLVLSLCCNNLSLPFHEPVSPLARHYYQIIKRPMDLSIIRRKLQKKDPAHYTTPEEVVSDVRLMFWNCAKFNYPDSEVAEAGRCLEVFF
modifications: GST tag
B5: DPF2 (PPC2W2): GST-tagged Dual PHD + C2W2 finger, 190-391 (protein)
chain: VGSARKKLDASILEDRDKPYACDICGKRYKNRPGLSYHYAHSHLAEEEGEDKEDSQPPTPVSQRSEEQKSKKGPDGLALPNNYCDFCLGDSKINKKTGQPEELVSCSDCGRSGHPSCLQFTPVMMAAVKTYRWQCIECKCCNICGTSENDDQLLFCDDCDRGYHMYCLTPSMSEPPEGSWSCHLCLDLLKEKASIYQNQNSS
modifications: GST tag

Experiment: dCypher AlphaScreen Phase A, optimal reader concentration range
Type: binding
Conditions: 100 nM biotinylated peptide; 30 min + 60 min at 23 °C; AlphaLISA; n = 2
Protocol: Fig. 3 dCypher histone peptide-binding assays define the PTM recognition preference of PHD proteins with high sensitivity. a–h Binding curves to determine optimal reader protein concentration for full peptide library screening on the dCypher® AlphaScreen® platform (see “Methods”). X-axes are log(protein concentration (M)) at constant peptide concentration (100 nM); Y-axes are AlphaScreen counts, representing relative strength of binding (n = 2; error bars are S.D.). i Heat map represents relative binding to H3 N-terminal peptides (left) by PHD-containing GST-tagged proteins (top) using the dCypher AlphaScreen platform. Protein concentrations can be found in Additional file 5: Table S4. Binding strength is indicated by color gradient from green to yellow (stronger to weaker). The asterisk (*) by MLL5 signifies its general preference for H3K4 methylation. Alpha counts (n = 2) were normalized individually for each protein to the highest signal for each respective assay. For full dCypher peptide screen data, see Additional file 4: Table S3
We next employed a highly sensitive proximity-based AlphaScreen histone peptide assay (dCypher®) to provide a third and orthogonal approach to analyzing the histone binding preferences for a subset of the 31 PHD proteins with respect to various histone tail PTMs. In this assay, biotinylated peptides are bound to streptavidin “donor” beads and the GST-tagged reader domains bound to Glutathione “acceptor” beads. The donor beads are excited by 680 nm light, releasing a singlet oxygen which causes light emission (520–570 nm) in proximal acceptor beads (within 200 nm); emission intensity is then correlated to binding strength. […] Additionally, we examined several well characterized PHD–PTM interactors [DIDO1, KDM7A, and DPF2 (PPC2W2)] for positive controls and to provide a benchmark. Initial binding assays were conducted for each fusion protein using three peptides [H3 (1–20) with K4me0, H3K4me3 or H3K9me3] to determine the optimal reader domain concentration for full peptide library studies (Fig. 3a–h; Additional file 4: Table S3 and Additional file 5: Table S4). This is an important first step as signal often declined after query protein saturation (the ‘hook point’, caused by excess free query competing with bead bound).
The dCypher peptide screen assay was performed as previously described. Briefly, 5 μL of GST-tagged reader domains (optimal protein concentration for library screening determined by initial binding curves to candidate peptides) were incubated with 5 μL of 400 nM (100 nM Final) biotinylated histone peptides (EpiCypher) for 30 min at 23 °C in 1× AlphaLISA Epigenetics buffer + epigenetics buffer supplement (PerkinElmer, AL1008) in a 384-well plate. […] Plates were incubated at 23 °C in subdued lighting for 60 min and AlphaLISA signal measured on a PerkinElmer 2104 EnVision (680 nm laser excitation, 570 nm emission filter ± 50 nm bandwidth).
Supplementary file 13072_2020_328_MOESM4_ESM.xlsx: Additional file 4: Table S3. dCypher Results. Excel Tab Peptide Phase A is a compiled set of binding data: chromatin reader titration vs. several peptide targets. […] Excel Tab Peptide Phase B is a compiled set of binding data: chromatin reader at optimized concentrations vs. entire 293 peptide library. […]

| Molecule | Phase A Optimal Range (reader concentration) [nM] |
| --- | --- |
| B1 | 5 to 30 |
| B2 | 1 to 35 |
| B3 | 0.45 to 10 |
| B4 | 0.5 to 10 |
| B5 | 0.05 to 1 |
